What all share (assay): Cell surface expression analysis of HLA class I by flow cytometry
What all share (format): binding, human
(In general: Flow cytometry measures light scatter and fluorescence of single cells or particles in a stream.)

Data set [1] has as its system HLA class I on MKN-1 cells. The conditions noted are these: MKN-1, gastric adenocarcinoma cells; FITC-labeled mAb. On the procedure:
(§1) Reactivity of 2D7 mAb in tumor cell lines and myeloma cells derived from multiple myeloma patients were assessed by flow cytometry.
(§2) The tumor cell lines used were prepared as follows. The myeloma cell line RPMI 8226, B lymphoblastic cell lines (IM-9, Raji, H S-Sultan, and Daudi), the T lymphoblastic cell line CEM, the chronic myeloid leukemia cell line K562, the lung adenocarcinoma cell line A549, the colon adenocarcinoma cell line COLO 201, and the gastric adenocarcinoma cell line MKN-1 were obtained from the Health Science Resources Bank (Osaka, Japan). The myeloma cell line U266-B1, the B lymphoblastic cell line ARH-77, the T-lymphoblastic cell line Jurkat the breast cancer cell line MCF-7, the hepatocellular carcinoma HepG2, the clear cell renal cell carcinoma Caki-2, and the malignant melanoma MeWo were obtained from the American Type Culture Collection (Manassas, Va.). The EBV-transformed B-cell line YN was a gift from Dr. Yasuhiko Nishioka (The University of Tokushima). These cell lines were cultured in an RPM-1640 medium (Sigma-Aldrich, St. Louis, Mo.) supplemented with 10% fetal calf serum (Gibco BRL, Grand Island, N.Y.) and penicillin (100 U/mL) under a humidified atmosphere of 5% CO2 at 37° C.
(§3) Cell surface expression analysis of HLA class I by flow cytometry was performed as follows using FITC-labeled 2D7 mAb or FITC-labeled anti-HLA-ABC common region mAb (Chemicon, San Diego, Calif.). The cells (5×10^5 cells) were washed twice with PBS, and then incubated on ice for 40 minutes with FITC-labeled 2D7 mAb or FITC-labeled anti-HLA-ABC common region mAb. MM patient-derived BMMCs were incubated on ice for 15 minutes with 2% γ globulin diluted in PBS, and stained with FITC-labeled 2D7 mAb and PE-labeled anti-CD38 mAb (BD Bioscience, San Jose, Calif.) for myeloma cell gating. Next, the cells were washed twice with PBS, and analyzed using an EPICS XL flow cytometer (Beckman Coulter, Japan). In several experiments, the cells were stimulated for 48 hours with IFNα or IFNγ prior to HLA class I expression analysis. HLA class I expression levels were evaluated as GeoMFI using the CellQuest software (BID Biosciences).

Data set [2] relates to HLA class I on RPMI 8226 cells. Conditions: RPMI 8226, myeloma cells; FITC-labeled mAb. On the procedure: as §1, §2, §3
The test system of data set [3] is HLA class I on CEM cells. The conditions noted are these: T-lymphoblastic cells, FITC-labeled mAb. On the procedure:
as §1, §2, §3

Data set [4] relates to HLA class I on HS-Sultan cells. The conditions noted are these: B-lymphoblastic cells, FITC-labeled mAb. The procedure:
as §1, §2, §3

The subject of data set [5] is HLA class I on COLO 201 cells. Conditions: COLO 201, colon adenocarcinoma cells; FITC-labeled mAb. On the procedure: as §1, §2, §3
The test system of data set [6] is HLA class I on ARH77 cells. The conditions noted are these: ARH77, B-lymphoblastic cells; FITC-labeled mAb. The procedure: as §1, §2, §3
Data set [7] has as its system HLA class I on Jurkat cells. The conditions noted are these: T-lymphoblastic cells, FITC-labeled mAb. The procedure:
as §1, §2, §3

Data set [8] deals with HLA class I on Daudi cells. The conditions noted are these: B-lymphoblastic cells, FITC-labeled mAb. On the procedure: as §1, §2, §3
For data set [9], the system named is HLA class I on U266 cells. Conditions: U266, myeloma cells; FITC-labeled mAb. On the procedure: as §1, §2, §3
Data set [10] concerns HLA class I on Raji cells. The conditions noted are these: B-lymphoblastic cells, FITC-labeled mAb. On the procedure:
as §1, §2, §3

For data set [11], the system named is HLA class I on A549 cells. The conditions noted are these: A549, lung adenocarcinoma cells; FITC-labeled mAb. On the procedure: as §1, §2, §3
The test system of data set [12] is HLA class I on Caki-2 cells. Conditions: Caki-2, clear cell renal cell carcinoma; FITC-labeled mAb. The procedure: as §1, §2, §3
The test system of data set [13] is HLA class I on IM-9 cells. Conditions: IM-9, B-lymphoblastic cells; FITC-labeled mAb. On the procedure: as §1, §2, §3
Data set [14] deals with HLA class I on YN cells. The conditions noted are these: EBV-transformed B-cells, FITC-labeled mAb. On the procedure: as §1, §2, §3
Data set [15] relates to HLA class I on MCF-7 cells. Conditions: MCF-7, breast cancer cells; FITC-labeled mAb. On the procedure: as §1, §2, §3
Data set [16] deals with HLA class I on HepG2 cells. Conditions: HepG2, hepatocellular carcinoma; FITC-labeled mAb. The procedure: as §1, §2, §3
Data set [17] relates to HLA class I on K562 cells. Conditions: K562, chronic myeloid leukemia cells; FITC-labeled mAb. The procedure: as §1, §2, §3
For data set [18], the system named is HLA class I on MeWo cells. Conditions: malignant melanoma, FITC-labeled mAb. The procedure: as §1, §2, §3

B1: 2D7: monoclonal antibody obtained by immunizing human myeloma cells; recognizes HLA class I (HLA-A) (antibody, V domains shown)
VH: QVQLQQSGPELVKPGASVKMSCKASGYTFTDYFIHWVKQRPGQGLEWIGWIFPGDDTTDYNEKFRGKTTLTADKSSSTAYILLSSLTSEDSAMYFCVRSDDFDYWGQGTTLTVSS
VL: QIVLTQSPAIMSASPGEKVTITCSASSSVSYMHWFQQKPGTFPKLWIYSTSNLASGVPTRFSGSGSGTSYSLTISRMEAEDAATYYCQQRTSYPPTFGSGTKLEIK
For B1, the “Expression (geometric mean fluorescence intensity)” value (from here on “Expression”) in data set [1] is given as 49; in [2] it was 509; in data set [3] it was 72; in [4] it was 285; in [5], 105; in [6], 3727. Moreover, the “Expression” value in data set [7] came to 111; in [8] it was 2; in data set [9] it was 340; in [10] it was 297; in data set [11], 37; in [12] it was 13. Moreover, the “Expression” value in data set [13] stood at 662; in [14] it was 804; in [15] it was 29; in data set [16] it was 33; in [17], 11; in [18], 21.

Source of the values: patent publication US20090022687A1, “Novel Pharmaceuticals That Use Anti-HLA Antibodies” (Chugai Seiyaku Kabushiki Kaisha, priority 2005, published 2009).
